# Molecular target: taxol-stabilised microtubules of porcine brain tubulin (pig (porcine brain)) (UniProt P02550)
# Experiment: single-molecule TIRF microscopy on surface-bound microtubules
# full-length human KIF5A, C-terminal mScarlet-StrepII, sequence (Q12840 whole entry): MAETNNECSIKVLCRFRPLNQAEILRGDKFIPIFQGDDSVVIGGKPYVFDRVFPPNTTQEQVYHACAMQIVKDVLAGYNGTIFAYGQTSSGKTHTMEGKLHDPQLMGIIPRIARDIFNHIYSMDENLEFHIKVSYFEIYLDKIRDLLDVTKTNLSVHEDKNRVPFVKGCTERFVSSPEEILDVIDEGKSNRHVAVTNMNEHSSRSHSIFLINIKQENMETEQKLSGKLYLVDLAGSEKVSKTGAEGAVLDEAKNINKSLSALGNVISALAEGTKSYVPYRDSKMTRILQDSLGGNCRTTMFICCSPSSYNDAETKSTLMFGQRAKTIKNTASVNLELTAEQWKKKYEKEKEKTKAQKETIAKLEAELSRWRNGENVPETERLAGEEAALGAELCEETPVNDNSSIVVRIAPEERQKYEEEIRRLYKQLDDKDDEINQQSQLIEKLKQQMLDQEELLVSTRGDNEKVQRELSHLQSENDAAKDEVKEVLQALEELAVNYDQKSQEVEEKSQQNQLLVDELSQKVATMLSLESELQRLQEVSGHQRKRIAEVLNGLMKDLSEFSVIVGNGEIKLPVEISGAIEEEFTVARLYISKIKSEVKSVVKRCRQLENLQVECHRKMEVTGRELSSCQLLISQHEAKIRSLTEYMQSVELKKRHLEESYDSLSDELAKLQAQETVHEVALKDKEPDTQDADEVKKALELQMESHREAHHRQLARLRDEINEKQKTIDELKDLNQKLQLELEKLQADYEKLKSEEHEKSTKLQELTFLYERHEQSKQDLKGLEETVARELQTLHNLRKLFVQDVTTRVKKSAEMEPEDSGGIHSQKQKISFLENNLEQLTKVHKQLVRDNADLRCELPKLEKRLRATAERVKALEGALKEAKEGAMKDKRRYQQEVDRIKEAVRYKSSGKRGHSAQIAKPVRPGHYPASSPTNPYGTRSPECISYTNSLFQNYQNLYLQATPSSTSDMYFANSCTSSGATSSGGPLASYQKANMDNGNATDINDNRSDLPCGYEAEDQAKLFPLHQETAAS
# K420C (human KIF5C aa 1-416, C-terminal mScarlet-StrepII), sequence (O60282 1-416, stated change not applied): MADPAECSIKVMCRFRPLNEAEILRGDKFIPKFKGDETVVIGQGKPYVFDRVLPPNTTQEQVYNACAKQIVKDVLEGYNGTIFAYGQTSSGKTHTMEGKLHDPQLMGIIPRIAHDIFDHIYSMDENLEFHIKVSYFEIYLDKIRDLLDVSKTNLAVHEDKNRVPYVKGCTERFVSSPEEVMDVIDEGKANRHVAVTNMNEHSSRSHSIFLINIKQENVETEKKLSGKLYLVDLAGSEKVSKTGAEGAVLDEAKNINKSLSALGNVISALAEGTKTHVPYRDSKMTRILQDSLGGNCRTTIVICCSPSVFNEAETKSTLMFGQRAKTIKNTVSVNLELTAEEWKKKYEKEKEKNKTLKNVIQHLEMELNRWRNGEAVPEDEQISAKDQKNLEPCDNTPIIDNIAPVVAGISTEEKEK
# K420A (human KIF5A aa 1-416, C-terminal mScarlet-StrepII), sequence (Q12840 1-416, stated change not applied): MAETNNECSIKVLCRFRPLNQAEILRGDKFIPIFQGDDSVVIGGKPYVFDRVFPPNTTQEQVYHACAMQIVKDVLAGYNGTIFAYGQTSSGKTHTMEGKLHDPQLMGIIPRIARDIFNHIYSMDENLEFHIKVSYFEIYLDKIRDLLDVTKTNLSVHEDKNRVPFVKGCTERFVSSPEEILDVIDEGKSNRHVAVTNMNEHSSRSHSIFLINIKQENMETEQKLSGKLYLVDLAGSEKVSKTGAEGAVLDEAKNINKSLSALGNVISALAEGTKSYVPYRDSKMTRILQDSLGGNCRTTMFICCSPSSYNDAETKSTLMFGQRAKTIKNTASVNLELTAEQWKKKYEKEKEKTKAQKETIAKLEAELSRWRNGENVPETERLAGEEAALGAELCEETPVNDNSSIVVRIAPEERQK
# full-length human KIF5C, C-terminal mScarlet-StrepII, sequence (O60282 whole entry): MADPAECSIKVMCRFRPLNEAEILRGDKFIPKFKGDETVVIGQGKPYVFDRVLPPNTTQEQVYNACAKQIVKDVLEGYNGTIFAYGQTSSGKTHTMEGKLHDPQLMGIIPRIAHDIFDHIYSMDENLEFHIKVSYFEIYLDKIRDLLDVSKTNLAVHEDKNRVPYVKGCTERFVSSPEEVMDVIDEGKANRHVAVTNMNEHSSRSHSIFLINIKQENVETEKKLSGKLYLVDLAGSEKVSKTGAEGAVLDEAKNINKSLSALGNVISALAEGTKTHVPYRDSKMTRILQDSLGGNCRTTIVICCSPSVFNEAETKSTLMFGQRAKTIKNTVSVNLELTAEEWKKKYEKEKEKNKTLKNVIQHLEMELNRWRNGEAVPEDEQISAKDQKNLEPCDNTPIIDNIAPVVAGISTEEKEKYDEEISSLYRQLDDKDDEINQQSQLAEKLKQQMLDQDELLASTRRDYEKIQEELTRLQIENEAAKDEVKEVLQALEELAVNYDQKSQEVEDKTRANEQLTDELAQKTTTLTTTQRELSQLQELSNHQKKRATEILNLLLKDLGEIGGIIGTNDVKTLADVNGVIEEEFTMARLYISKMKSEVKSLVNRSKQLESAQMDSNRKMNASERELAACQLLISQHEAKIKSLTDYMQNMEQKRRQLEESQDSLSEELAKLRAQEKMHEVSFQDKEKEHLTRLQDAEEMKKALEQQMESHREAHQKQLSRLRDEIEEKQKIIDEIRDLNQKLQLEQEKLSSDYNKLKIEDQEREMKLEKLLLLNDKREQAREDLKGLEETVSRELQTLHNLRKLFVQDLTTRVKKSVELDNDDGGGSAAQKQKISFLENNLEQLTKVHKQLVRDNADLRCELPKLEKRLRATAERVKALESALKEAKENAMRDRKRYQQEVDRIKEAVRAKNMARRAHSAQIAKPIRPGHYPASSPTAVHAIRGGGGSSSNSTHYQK
row,Substance,landing rate
1,"K420A (human KIF5A aa 1-416, C-terminal mScarlet-StrepII) (from UniProt Q12840 1-416) (domain or fragment)",162 /μm/s/μM
2,KIF5A-KLC1 tetramer (from UniProt Q12840;Q07866) (complex),0.1 /μm/s/μM
3,"KIF5B-E178A, C-terminal mScarlet-StrepII (from UniProt P33176 1-963) (natural protein)",8.1 /μm/s/μM
4,KIF5B-KLC1 tetramer (from UniProt P33176;Q07866) (complex),0.06 /μm/s/μM
5,"full-length human KIF5A, C-terminal mScarlet-StrepII (from UniProt Q12840 1-1032) (natural protein)",0.69 /μm/s/μM
6,"full-length human KIF5B, C-terminal mScarlet-StrepII (from UniProt P33176 1-963) (natural protein)",0.08 /μm/s/μM
7,"full-length human KIF5C, C-terminal mScarlet-StrepII (from UniProt O60282 1-957) (natural protein)",0.1 /μm/s/μM

# Second part, the substance after the results:
row,landing rate,Substance
1,146 /μm/s/μM,"K420B (human KIF5B aa 1-420, C-terminal mScarlet-StrepII) (from UniProt P33176 1-420) (domain or fragment)"
2,147 /μm/s/μM,"K420C (human KIF5C aa 1-416, C-terminal mScarlet-StrepII) (from UniProt O60282 1-416) (domain or fragment)"
3,4.4 /μm/s/μM,"KIF5B-H129A, C-terminal mScarlet-StrepII (from UniProt P33176 1-963) (natural protein)"
4,4.1 /μm/s/μM,"KIF5B-IAK/AAA, C-terminal mScarlet-StrepII (from UniProt P33176 1-963) (natural protein)"
5,3.6 /μm/s/μM,"KIF5B-Δhinge (Δ505-610), C-terminal mScarlet-StrepII (from UniProt P33176 1-963) (natural protein)"
6,0.06 /μm/s/μM,KIF5C-KLC1 tetramer (from UniProt O60282;Q07866) (complex)

# From publication doi:10.1101/2021.03.12.434960
